Biological target: NS1_Nuc WT (nuclease domain of NS1) (human parvovirus B19 (variant …, UniProt A0A097C0M3 2-176))
Test: EMSA; 1 mM EDTA
Details: protein: recombinant, tags: His-SUMO removed by ULP1

| Binder | Kd (label: 5'-FAM, single strand) [µM] | Kd (label: 5'-FAM on 67-ori-top, partial duplex over NSBE1-NSBE4, top strand single-stranded elsewhere) [µM] |
| --- | --- | --- |
| 67-ori-top (ssDNA) DNA: AAAATTTAAAAGAAGACACCAAATCAGATGCCGCCGGTCGCCGCCGGTAGGCGGGACTTCCGGTACA | 12.3 |  |
| 67-ori-top/40-ori-bot (mixed) DNA 1: AAAATTTAAAAGAAGACACCAAATCAGATGCCGCCGGTCGCCGCCGGTAGGCGGGACTTCCGGTACA DNA 2: TGTACCGGAAGTCCCGCCTACCGGCGGCGACCGGCGGCAT |  | ~1 |
